# Test results: the nanobody polyreactivity screen of Harvey et al. (2022)
# Assay: yeast display, Sf9 membrane polyspecificity reagent, FACS + sequencing; frameworks hold sequencing errors
# In short: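 Using colony PCR, genes from sorted yeast display clones were amplified, then sequenced on MiSeq at 2 × 250 and filtered by CDR length. The clones had been stained with 10% biotinylated, detergent-solubilized Sf9 membrane reagent for 1 hour at 4 °C and sorted by FACS into low and high (top ~1%) gates on anti-HA and streptavidin fluorescence. Polyreactivity labels come from the gate of origin.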
row,Sequence,polyreactivity (PSR sort gate)
1,QVQLVESGGGLVQAGGSLRLSCAASGFIFYYYTMGWYTQAPGKERELVAAISKSGGNTYYADSVKGRFTISRDNAKNTVYLQMNSLKPEVTAVYYCAASRYNTVTYYYSGQGTQVTVSS,high polyreactivity
2,QVQLVESGGGLVQAGRSLRLSCAASGLIFPWNAMGWYRQAPGKQRELVAAINGRDGSTYYADSVKGRFTISRDNAKNTVYLQMNSLKPEDTAVYYCAKGPSGVRSYREYDSWGQGTQVTVSS,low polyreactivity
3,QVQLVESGGGLVQAGGSLRLSCAASGRILKSYAMGWYRQAPGKERELVAAITSSGVSTYYADSVKGRFTISRDNAKNTVYLQMNSLKPEDTAVYYCAARNYRYPIMGYWGQGTEVTVSS,high polyreactivity
4,QVQLVESGGGLVQAGGSLRLSCAASGNIFNDNAKGLYRKAPVKERELVAAISSGGSTNYADSVKGRFTISRDYAKNTVYLQMNSLKPEDTAVYYCAAELTLIYWWSLDYWGQGTQVTVSS,low polyreactivity
5,QVQLVESGGGLVQAGGSLRLSCAASGSILGSNVMGWYRQAPGKERELVAAITSGDSTNYADSVKGRFTISRDNAKNTVYLQMNSLKPEDTAVYYCAKPYSVAPAAVLNWYLGYEYWGQGTQVTVSS,low polyreactivity
6,QVQLVESGGCLVQAGGSLRLSCAASGSIFVAYAMGWYRQAPGKERELVAAITGRSGRTYYADSVKGRFTISRDNAKNTVYLQMNSLKPEDTAVYYCAARGYGTDDYDYCGQGTQVTVSS,high polyreactivity
7,QVQLQESGGGLVLAGGSLRLSCAASGSIFLFYTMGWYRQAPVKEREFVAGITLRTPTYNADSVKGRFTISRDNVKNTVYLQMNSLKPEDTAVYYCAVAVGHYTEIWYWGQGTQVTMSS,high polyreactivity
8,QVQLVESGGGLVQAGGSLRLSCAASGRIFVYYAMGWYRQAPGQEREFVATISSTGGSTYYADSVKGRFTISRDNAKNTVYLQMNSLKPEDTAVYYCAVRGWYPGVRYDYWGQGTQVTVSS,low polyreactivity
9,QVQLQESGGGLVQAGGSLRLSCAASGYISLAQTIGWYRQAPGKEREFVASIALGSRTYYTDSVKGSFTISRDNAKTTVYLQMNSLKAEDTAVYYCAARVGASYAHDYWGQGTQVTVSS,low polyreactivity
10,QVQLVESGGGLVQAGGSLRLSCAASGRTLAKNAMGWYRQAPGKERELVAAISRRGGSTYYADSVKGRFTISRDNAKNTVYLQMNSLKPEDTAVYYCARASRQGYYQLSYDEFDYWGQGTQVTVSS,high polyreactivity
11,QVQLQVSGGHLVQAGGSLRLSCAASGTIYGLTSMGWYSQAPGKEREFVAAITDGGNTNYADSVKGRFTISRDNAKNTVYLQMISLKPEDTSVYYCAFLFSDDAYFAYWGQGTQVTLSS,low polyreactivity
12,QVQLVESGGGLVQAGGSLRLSCAASGLTFTYNAMGWYRQAPGKERELVAAISKRGGSTYYADSVKGRFTISRDNAKNTVYLQMNSLKPEDTAVYYCNARTTTRSYPAFDYWGQGTQVTVSS,high polyreactivity
13,QVQLVESGGGLVQAGGSLRLSCAASGSTFTLNAMGWYRQAPGKECELVADISWSSGRTYYADSVKGRFTISRDNAKNTVYLHMNSLKPEDTAVYYCATDDFWNVKFYAYYPEFDYWGQGTQVTVSS,low polyreactivity
14,QVQHVESGGGLVQAGGSLRLSCAASGRTFKYYAMGWYRQAPGKERELVAAISSRGGSTYYADSVKGRFTISRDNAKNTVYLQMNSLKPEDTAVYYCAKGTYLSTSTVANDYWGQGTQVTVSS,high polyreactivity
15,QVQLVESGGGLVKAGGSLRLSCAASGSIFSNNAMGWYRQAPGKEREFVAAIRGRGTRTYYADSVKGRFTISRDNAKNTVYLQMNSLKPEDTAVYYCAKYPFQPRDLQFNYWGQGTQVTVSS,high polyreactivity
16,QVQLVESGGGLVQAGGSLRLSCAAYGSILRTYAMGWYRQAPGKERELVAAISSSGGSTYYADSVKGRFTISRDNAKNTVYLQMNSLKPEDTAVYYCAARYRYYYTRYDYWGQGTQVTVSS,high polyreactivity
17,QVQLVESWGGLVQAGGSLRLSCAASGSILYYYVMGWYRQAPGKERELVAAINSGGNTNYADSVKGRFTISRDNAKNTVYLQMNSLKTVDTAVYYCATASGDGVRTDFGNEYDYWGQGTQVNVSS,low polyreactivity
18,QVQLVESGGGLVQAGGILRLSCAASGRTFMYYAMGWYRQAPGKDMELVAAIRRGSSTYYADSVKGRFTISRDNAKYSVYLQMNSLKPEDTAVYYCAARGRYRIGQGRYGKRYDYWGHGTQVTVSS,high polyreactivity
19,QVQLVESGGGLVQAGGSLRLSCAASGLTFGRNAMGWYRQSPGKERELVAAITFNGGSTYYADSVKGRFTISRDNAKNTVYFQMNSLKPEDTAVYYCAARLWRRSRFDYWGLGTQVTVSS,high polyreactivity
20,QVQLVESGGGLVQAGGSLRLSCAASGSILCTNAMGWYRQAPGKERELVAAITTSGASTYYADSVKGRFTISRANAKNSVYLPMNSLKPEDSAVYYCAAPSRYRYYWGNYWGQGTQVTVSS,high polyreactivity
21,QFQLVESGGGLVQAGGSLRLSCASSGGTFGNNDMGWYRQAPGKESELVAAIRSAGTTYYADSVKGRFTISRDNAKNTVYLQMNSLKPEDTAVYYCNADTTGYWSYGFQYYGEDYWGQGTQVTVSS,low polyreactivity
22,QVQLVESGGGLVQAGGSLRLSCAASGYPFGKYAMGWYRQAPGKERELVASIRSGGSTNYADSVKGRFTISRDNAKNTVYVQMNCLKPEDTAVYYCNTRYRYQYGYDYWWQGTQVTVSS,high polyreactivity

row,Sequence,polyreactivity (PSR sort gate)
1,QVQLVESGGGLVQAGGSLRLSCAASGITFTSYVMGWYRQAPGKERELVAAIRWSGGRTYYADSVKGRFTISRDNAKITVYLQMNSLKPEDTAVYYCNRVTRSHVDYWGQGTQVTLSS,high polyreactivity
2,QVQLVESGGGLVQAGGSLRLSCAASGITFKGNAMGWYRQAPGKERELVAVITWSGGSTYYADSVKGRFTISRDNAKNTVYLQMNSLKPEDTAVYYCAKPWKYGDSQYDYWGQGTQVTVSS,low polyreactivity
3,QVHLVESGGGLVQAGGSLRLSCAASGSTVYNAMGWYRQAPGKERELVAVITDSDGSTYYADSVKGRFTISRDNAKNTVYLQMNSLKPEDTAVYYCAVTAIALYYSSGYYWGQGTQVTVSS,low polyreactivity
4,QDQLVESGGGLVQAGGSLRLSCAASGSTIFVYTMGWYRQAPGKERELVAAISGSGGSTSYADSVKGRFTISRDNAKNTVYLQMNSLKPEDTAVYYCAARRHVYLRGSTFEFYYWGQGTQVTVSS,high polyreactivity
5,QVQLLESGGGLVQAGGSLRLSCAASGYTFAYYAMGWYRQAPGKERELVATISWSDGSTYYADSVKGRFTISRDNAKNTVYLQMNSLKPEDTAVYYCAADTPGYYTYYGFGYWGQGTQVTVSS,low polyreactivity
6,HVQLVESGGGLVQAGGSLRLSCAASGFTFVPYAMGWYRQAPGKERELVAAISSGGSTYYADSVKGRFTISRDNAKNTVYLQMNSLKPEDTAVYYCATTGWYRYGRKFYYWGQGTQVTVSS,high polyreactivity
7,QVQLVESGGGLVQAGGSLRLSCAASGFTFWAYAMGWYRQAPGKERELVAVISGSGGRTYYADSVKGRFTISRDNAKNTVYLQMNSLKPEDTAVYYCNARYPRLHRTYNYWGQGTLVTVSS,high polyreactivity
8,QVQLVESGGGLVQAGGSLRLSCAASGRTFAFNAMGWYRPAPGKERELVAAIRWSGGCTYYADSVKGRFTISRDSPKNTVSLQMNTLKPEDTAVYYCAAYEKRLGYDYWGQGTQVTVSS,high polyreactivity
9,QVQLVESGGGLVQAGGSLRLSCAASGSIFGGNAMGWYRQAPGKETELVATITVRGGSTYYADSVKGRFRISRDNAKNSVYLQMNSLKPEDTAVYYCATEEVSRYRYGYWGQGTQVTVSS,low polyreactivity
10,QVQLVESGGGLVQAGGSLRLSCAATGTTFHYYAMGWYRQAPGKERELVASITRSGGRTYYADSVKGRFTISRDNAKNTVYLQMNSLKPEDTAVYYCAARSYRRTSYDYPSNPNYEYYYWGQGTQVTVSS,high polyreactivity
11,QVQLVETGGGLDQAGVSLRLSCAASGSIFGYNDMGWYRQAPGKERELVAAIDCSDDITYYADSVKGRFTISRDNAKNTVYLQMYSLKPEETAVYYCAAVYYYYQYWAHTYYAGMEYWGQGTQVTVSS,high polyreactivity
12,QVQLVESGGGIVQAGGSLRISCAASGFIFSSYDMGWYRQAPGKERELVAAITWSGGSTYYADSVKARFTISRDNAKNTVYLHMNSLKPEDTAVYYCNAYPYYLVRNMDSWGQGTQVTVSS,high polyreactivity
13,QVQLVESGGGLVQAGGSLRLSCAASGRTFLINAMGWYRQAPGKERELVADITGRGSSTYYADSVKGRFTISRDNAKNTVYLQMNSLKPEDTAVYYCNAVLRKITYDYWGQGTQVTVSS,high polyreactivity
14,QVHLVESGGGLVQAGGSLRLSCAASGFIFRRYAMGWYRQAPGKERELVAAITSSGTSTYYADSVKGRFTISRDNAKNTVYLQMNSLKPEDAAVYFCNRDNYVRWIREDFDYWGQGTQVTVSS,high polyreactivity
15,QVQLVESGGGLVQAGGSLRLSCAASGSIFSQYAMGWYRPAPGKERELVAAISRSGGRTSYADSVKGRFTISRDNAKNTVYLQMNSLKPEDTAVYYCAARGPTNMGYWGQGTQVTVSS,high polyreactivity
16,QVQLVESGGGLVQAGGSLRLSCAASGRILYGYAMGWYRQAPGKERELVASITWSGGSTYADSVKGRFTISRDNAKNTVYLQMNSLKPEDTAVYYCATRRGPKWQWLTYGYWGQGTKVTVSS,low polyreactivity
17,QVQLVESGGGLVQAGGSLRLICAASGGIFWYNAMGWYRPAPGKERELVADISSSGITYYADSVKGRFTISRDNAKNTVYLQMNSLKPEDTAVYYCAADSTTRPGLRVYDDYDYWGQGTQLTVSS,low polyreactivity
18,QVQLVESGGGLVQAGGSLRLSCAASGLTFGVYAMGWYRQAPGQERELVAASTWGDGSTYYADSVKGRFTISRDNAKNTGYLQMNSLKPEDTAVYYCNAVTRRHKYYYWGQGTQVTVSS,high polyreactivity
19,QVQLVESGGGLVQAGGSLRLSCAASGSIIRVNTMGWYRQAPGKERELVAGITSRGGSTYYADSVKGRFTISRDNAKNTVYLQMISLKPEDTAFYYCANRAYGTALYRGYGNWGQGTQVTVSS,low polyreactivity
20,QVQLVESGGGLVQAGGSLRLSCAASGSTFWFNAMGWYRQAPGKERELVAAIDSNTGSTSYADSVKGRFTISRDNAKNTVYLQMNSLIPEDTAVYYCNADYDFAKDRGDYWGQGTQVTVSS,low polyreactivity
21,QVQLEESGGGLVQAGCSLRLSCADSGITFGGNAMGWYRQAPGKERDLVAAIDEGGGSTYYADTVKGRFTLSRDNAKNTVYLQMHSLKPEPTAVDYCAADFGYYGYYYWGQGTQVTVST,low polyreactivity
